Measurements taken from patent US20010016351.

System: GFP-CBP fusion protein (green fluorescent protein with C-terminal thrombin-cleavable calmodulin binding peptide tag, expressed from GFP Clone No. 2995-87.6 in BL21(DE3) cells) [GFP: P42212]

Question: What does the source list for thrombin?
Answer: cleavage of the fusion protein by thrombin at 6 h: Fifty percent cleavage was observed at 6 h; cleavage of the fusion protein by thrombin at 24 h: 95 percent cleavage was achieved at 24 h
